Type in all cases: cell-based, S. cerevisiae
One experiment concerns genomic URA3 locus. Description: Fluctuation tests of genomically encoded URA3 in the presence of TP-DNAP2 variants (AR-Y436). The following applies: for per-base substitution rate at genomic URA3 locus: TP-DNAP2 in trans, AR-Y436, (95% C.I.); for host genomic mutation rate: error-prone TP-DNAP2 variant present. How it is done:
Fluctuation tests using genomically encoded URA3 were performed in the presence of TP-DNAP2 variants to determine the genomic per-base substitution rates, similarly to previously described protocols (Lang and Murray, 2008, Genetics, 178:67-82). AR-Y292 derived strains harboring the appropriate TP-DNAP2 variant encoded on a CEN6/ARS4 vector (with a HIS3 marker) were grown in liquid SC medium lacking uracil and histidine until saturation. Each strain was diluted 1:5,000 into SC medium lacking histidine and aliquoted into 48 replicates of 200 μL each. Cultures were grown for 48 hours at 30° C. to reach saturation. Saturated cultures were washed with 400 μL 0.9% NaCl and resuspended in 420 μL 0.9% NaCl. 400 μL from each replicate was spot plated on pre-dried solid SC medium lacking histidine and supplemented with 5-FOA (1 g/L). The residual 20 μL from six replicates were pooled, diluted, and plated on solid YPD medium to determine cell titers. Plates were allowed to dry before incubation at 30° C. Colonies were counted on titer plates after 2 days, and on spot plates after 5 days of growth. The expected number of mutants (m) was calculated using the MSS maximum likelihood estimator method via the FALCOR tool, and corrected for partial plating, as described above. To determine per-base substitution rates, the corrected m was normalized to the average cell titer, the URA3 copy number (1 in haploid yeast), and the target size for 5-FOA resistance via substitutions in URA3 (104 bp). 95% confidence intervals were similarly scaled.
Like p1 replication by TP-DNAP1, p2 replication by TP-DNAP2 occurs in the cytoplasm via a protein-primed mechanism, making it likely that p2 replication is orthogonal to host genome replication. To test this, CEN6/ARS4 vectors lacking TP-DNAP2, or encoding codon optimized versions of TP-DNAP2^WT, TP-DNAP2^S370Q, or TP-DNAP2^Y424Q were transformed into AR-Y436. AR-Y436 contains wt p1 and p2, as well as an intact URA3 locus in the host genome. Genomic per-base substitution rates were determined via fluctuation tests based on the frequency of 5-FOA resistant clones arising from mutations in the genomic URA3 locus, as previously described (Ravikumar et al., 2014, Nature Chemical Biology, 10:175-177; Lang and Murray, 2008, Genetics, 178:67-82). The substitution rich spectrum of URA3-disabling mutations makes this assay ideal for detecting whether the elevated substitution rate of TP-DNAP2^S370Q or TP-DNAP2^Y424Q contributes to genomic mutation. No increase in the host genomic mutation rate was observed when error-prone variants of TP-DNAP2^S370Q and TP-DNAP2^Y424Q were present (Table 8).

The test system of the next experiment is p1. Description: p1 copy number by p1-encoded mKate2 fluorescence. Summed up: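 Read-out is mKate2 fluorescence of saturated OR-Y24 cultures, measured by flow cytometry or by plate reader with OD600 normalization. Flow values were converted by a qPCR-derived linear calibration; plate values were scaled to a w.t. TP-DNAP1 control.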
The next experiment concerns genomic URA3 gene. Description: Fluctuation tests of the genomic URA3 gene in the presence of TP-DNAP1 variants. The following applies: for Yeast genomic substitution mutation rate: URA3 locus, strain harbouring p1 and the TP-DNAP1 variant. On the procedure:
Fluctuation tests of the genomic URA3 gene were performed to determine genomic per-base substitution rates, as previously described (Ravikumar et al., 2014). Fluctuation data were analyzed by the maximum likelihood method, as described for large-scale p1 fluctuation tests. Phenotypic mutation rates were divided by the target size for loss of function of URA3 via base pair substitution (Lang et al., 2008), to yield per-base substitution rates. 95% confidence intervals were similarly scaled by these factors. All data related to genomic URA3 fluctuation tests are fully described in Table 5.

For a further experiment, the system named is p1-encoded leu2 (Q180*). Description: qPCR measurement of p1-encoded leu2 (Q180*) copy number. The following applies: qPCR-determined p1 copy number, OR-Y24 strains. How it is done:
A calibration curve was established to correlate p1 copy number, determined via quantitative PCR (qPCR), with fluorescence of p1-encoded mKate2 (Table 1). Five TP-DNAP1 variants representing a wide range of copy numbers were transformed into ORY24 and passaged until w.t. p1 was displaced. The five OR-Y24 strains were grown to saturation, diluted 1:10,000 to mimic p1 fluctuation tests, and grown in triplicate 100 μL cultures and duplicate 40 mL cultures. 100 μL saturated cultures were subject to fluorescence measurement of mKate2 (ex/em=561 nm/620 nm, bandwidth=15 nm) on a flow cytometer (Invitrogen Attune NxT). Whole-cell DNA extracts were prepared from 40 mL cultures and used as templates for qPCR measurement of p1-encoded leu2 (Q180*), as described previously (Ravikumar et al., 2014). p1-encoded LEU2 was PCR amplified with qPCR-Leu2F and qPCR Leu2R; and genomic LEU3 was PCR amplified with qPCR-Leu3F and qPCR-Leu3R using SyBR Green (Fisher Scientific) master mix.
Background: In qPCR the cycle at which signal appears reflects the starting amount.

Substitutions are numbered along the chain they refer to. Names may count otherwise. “And” between values parts separate entries of the source, which are not always exact repeats. Identical values can stand only once.

B1: WT: wild-type Kluyveromyces lactis DNA polymerase TP-DNAP2, SEQ ID NO:13 (protein, listed as Kluyveromyces lactis)
chain: MNDELAFLNSQIDDYSDDIEFLRTEVFRINRYSKSIYSLMKNSSKEAIKETIEFNKYGQEIHSKIKEKEISLIEAIKLMEKKYKYLRSLNKTKDKSKKKKIHTKDIETLKTIYKTKADFDIRNFKNAETFTYENYSLLIPSEKELIDLIPEIEEDYSYYFYVSLTITGPTIFGGVTRKVPIIDTYGDINKDFYNKIKENITKVLDRVPFYEEKESEIICKKVLITLTVNKWESIDKWYKNVKSKSKKFKDFTLFLASDTSKNCVQQCVEYLGGKWNTNYSLEKMIPQQKIVTYIPLLMDIQYVQSMEDLISDFDEPNTDCKNIARLLKWNGHMGVITKIDKDVKINRIQRKRIIDVENKEVKEVFFDIESFSDETKHQIPYLICWSYLGELYYRTGKNCIKEFVEEILSYNVDIILYAWYGSGYDYQHVLPYMKSKCIKDKYIIKNNMITYGELYYENAIIYLKDPYLFILTSLDKASKAFNVINKGEFPHSIIHSWEDLNKILPNWVKIQKRMIEYKDDNKLNIYYKNIEIFENDRNYNTILENAIEYCKVDVLAMEKVWIKFKKLLEKNLNITVSVKTFTLSQLSMKIMESKLPKYVKLYVPTLEEYSKIRNAIYGGRVISKNGIYEENIVYADVVSLYPSAMKLLKHSYGKPKLVDYIDFEKHGIYRVTLLNKHDQEPKNYLNFVPRRINRKLTWEWFKIHEGWYHTYDLIIAKSEGFDIYCHEGFEYPEKDYIFNDFIDTLYSMKETHTACSCEEQPCPIRMVAKIALNGGGYGKFVQKPIDKEIYIVKRDVVAGECDKLQENENGEICIGKRLVKRPLFYNLDSENYDKMIIEKEDEPIYSTQCGISILSASRYRLYKLCKQFENIDIIYSDTDSIFVKQKSVDWELFKSKCGSELGQLDSTIDDTKNAIISKMYIGGAKMYAFEYLNNKNKLITKLHCKGVPNYMLSLNQFKYLMESPDNTIAYKFEIIRRKLVNVITKDLIKDIKQT
In the case of B1, the “per-base substitution rate at genomic URA3 locus” value (from here on “per-base substitution rate”) with genomic URA3 locus is listed as 2.2 (1.2-3.4) ×10^−10.

B2: S370Q: TP-DNAP2 variant (protein, listed as Kluyveromyces lactis)
chain: B1 chain with S370Q
Take B2: in the experiment with genomic URA3 locus, the “per-base substitution rate” value is given as 1.8 (1.0-2.8) ×10^−10 and the “host genomic mutation rate” value is given as “No increase”.

B3: Y424Q: TP-DNAP2 variant (protein, listed as Kluyveromyces lactis)
chain: B1 chain with Y424Q
B3: in the experiment on genomic URA3 locus, the “per-base substitution rate” value is 1.8 (1.0-2.9) ×10^−10 and the “host genomic mutation rate” value is listed as “No increase”.

B4: TP-DNAP1-4-2: TP-DNAP1 variant (L477V, L640Y, I777K, W814N), encoded by SEQ ID NO:11 (protein, listed as Kluyveromyces lactis)
chain: MDYKDKALNDLRNVYADFDSLPLDFRQILIKDRATLLQKEDVEKKILERQEDAKKYAEYLKQSEIPERISLPNIKRHKGVSISFEETSEDMVLEPRPFIFDGLNIRCFRRETIFSLKNKILNMVKESSSFKNVSRQSVSFMYFKIFNKGKVIASTKSVNIYEDKIDERLEDLCNNFDDVLKKIIDVTYGYESLFVSETYSYVIFYAKSIYFPQPRCVNNWGNNIPNILTFDSFKLFTANKNNVSCIKQCSRFLWQKDFNTLEEMIEYKNGNICIVTPQLHINDVRDIKSFNDIRLYSESPIKTFSVIDNTITYLFYFKEHLGVIFNITKSRHDRRVTKFSPLSKFSDVKNITVCFDIESYFDPEKESNQVNIPFICCASIIYNKVIGNIVDFEGRDCVAQMIEYVVDICGELNISSVELIAHNGGGYDFHYILSSMYNPAAIKNILIRNNSFISFNFAHDGVKFSVKDSYSFLLCSVANASKAFLNEETFKKTDFPHHDLKTADDLYKVYKEWSSVNTEINHVVEKEKLLITSEHIVNFTKNDKSKTLIEWSKDYCRNDVLVLSKVWLEFKNAVEDIFNCELVDQTMTLAGLSYKLFQANMPFDVELRHPNKEDYFNMREALIGGRCISVNGIYKDVLCYDVKSLYPASMAFYDQPYGSFKRVSSRPKDELGIYYVRVTPNRNNKSNFFPIRSHNKITYNNFEESTYIAWYTNVDIDIGLSEGHNIEYIPFDSYGNIGYSWSKKGKIFEKYIKDVLYKLKIKYEKQNNKVKRNVIKKIMNSLWGKFAQKWVNFEYFIKSEDDIDFESEEAYKINDTDFMLIKKIKESTYSSKPIQNGVFTLSWARYHMKSIWDAGAKEGAECIYSDTDSIFVHKEHFKKNAKFMLNGLKVPIIGSEVGQLELECEFDKLLCAGKKQYMGFYTYFQDGKPCIKEKKRFKGIPSNYIIPELYAHLLSGADKEAKIQFLKFRREWGSVKGYIENKTVKAT
As for B4, in the experiment with p1 (sustained by TP-DNAP1 variant), the p1 copy number is ~5. In the experiment on genomic URA3 gene, the “genomic mutation rates in the presence of p1 replication” value is recorded as “remain unchanged” and the “Yeast genomic substitution mutation rate” value is 1.98 × 10^−10 s.p.b. In the experiment on p1-encoded leu2 (Q180*) (L640Y, I777K, W614N), the “Average leu2 (Q180*) copy number per cell” value was 16.9 and 15.6.

B5: w.t.: wild-type Kluyveromyces lactis DNA polymerase TP-DNAP1, SEQ ID NO:1 (protein, listed as Kluyveromyces lactis)
chain: B4 chain with V477L, Y640L, K777I, N814W
Take B5: the “Fold-change of p1 copy number over w.t.” value in the experiment on p1 (G410 (w.t.) background) turned out to be 1.0 ± 0.27 fold; in the experiment with p1 (variant additionally carrying G410H), 1.53 ± 0.33 fold. The “Yeast genomic substitution mutation rate” value with genomic URA3 gene is 8.73 × 10^−11 s.p.b. In addition, the “Average leu2 (Q180*) copy number per cell” value in the experiment with p1-encoded leu2 (Q180*) was 68.9 and 88.1.

Source of the values: patent US20230242902A1, “A HIGHLY ERROR-PRONE […] R[…] FOR TARGETED CONTINUOUS EVOLUTION IN VIVO” (The Regents of the University of California, priority 2017, published 2023).
